# Experimental data: paper PMC8262405 (Molecular cell, 2021)
# Substitutions are numbered along the chain they refer to. In names and notes the source's numbering stands.
# T1: GFP-Rad55-Rad57 complex (His6-GFP-Rad55 and FLAG-Rad57) (S. cerevisiae, UniProt P38953 1-406; P25301 1-460)
# T1 sequence (looked up) 1: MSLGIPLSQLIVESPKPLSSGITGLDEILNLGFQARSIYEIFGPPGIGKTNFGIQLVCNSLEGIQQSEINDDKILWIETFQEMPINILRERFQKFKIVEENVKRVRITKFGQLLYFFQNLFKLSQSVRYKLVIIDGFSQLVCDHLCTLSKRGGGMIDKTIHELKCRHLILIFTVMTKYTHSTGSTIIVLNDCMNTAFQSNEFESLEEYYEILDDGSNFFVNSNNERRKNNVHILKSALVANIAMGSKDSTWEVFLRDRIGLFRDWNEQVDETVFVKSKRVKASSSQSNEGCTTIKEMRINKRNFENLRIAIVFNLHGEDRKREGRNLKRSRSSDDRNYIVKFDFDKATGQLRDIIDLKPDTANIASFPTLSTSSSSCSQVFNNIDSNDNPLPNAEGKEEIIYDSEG
# T1 sequence (looked up) 2: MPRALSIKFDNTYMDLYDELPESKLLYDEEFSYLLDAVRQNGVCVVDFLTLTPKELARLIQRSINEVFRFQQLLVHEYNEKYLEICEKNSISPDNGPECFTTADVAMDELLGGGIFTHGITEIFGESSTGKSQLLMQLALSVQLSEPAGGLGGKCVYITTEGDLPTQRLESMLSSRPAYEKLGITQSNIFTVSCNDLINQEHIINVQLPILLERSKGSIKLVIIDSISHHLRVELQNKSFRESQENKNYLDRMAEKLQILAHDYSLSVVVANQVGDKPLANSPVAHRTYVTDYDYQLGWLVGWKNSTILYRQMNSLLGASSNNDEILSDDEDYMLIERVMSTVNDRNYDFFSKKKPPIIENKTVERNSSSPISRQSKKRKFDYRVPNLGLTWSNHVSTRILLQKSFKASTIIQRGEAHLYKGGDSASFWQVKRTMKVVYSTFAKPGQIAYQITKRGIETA
# B1: Hed1-GFP (natural protein, S. cerevisiae, UniProt Q03937 1-162, looked up)
# chain: MQQRSNRRSCSYIPLGVHNNAEKSLCTEVAPARKNKRSITTSPIVNINVVERRLFNLELEKQQLRAKNLSENTGGGSPNGGAYLDAKKGVREQDQYQGGPSKELDRLQPPPSMKKSPPRKKKSLKDLIYETNKTFYQVDSNKVKYKVGLSKKQLLPSKTVDN
# B2: Rad51 (natural protein, S. cerevisiae, UniProt P25454 1-400, looked up)
# chain: MSQVQEQHISESQLQYGNGSLMSTVPADLSQSVVDGNGNGSSEDIEATNGSGDGGGLQEQAEAQGEMEDEAYDEAALGSFVPIEKLQVNGITMADVKKLRESGLHTAEAVAYAPRKDLLEIKGISEAKADKLLNEAARLVPMGFVTAADFHMRRSELICLTTGSKNLDTLLGGGVETGSITELFGEFRTGKSQLCHTLAVTCQIPLDIGGGEGKCLYIDTEGTFRPVRLVSIAQRFGLDPDDALNNVAYARAYNADHQLRLLDAAAQMMSESRFSLIVVDSVMALYRTDFSGRGELSARQMHLAKFMRALQRLADQFGVAVVVTNQVVAQVDGGMAFNPDPKKPIGGNIMAHSSTTRLGFKKGKGCQRLCKVVDSPCLPEAECVFAIYEDGVGDPREEDE
# B3: Rad51-K191R (natural protein, S. cerevisiae, UniProt P25454 1-400, looked up)
# chain: B2 chain with K191R
# What was measured:
# Rad51 = molecular target: B2; assay: single-molecule ssDNA curtain
# [1] = molecular target: T1, GFP-Rad55-Rad57 complex (His6-GFP-Rad55 …); assay: single-molecule ssDNA curtain
binding result (Rad51),koff [1] [s⁻¹],Binder
binds,–,B1
–,0.00758,B2
–,0.0058,B3
